Test results published in US20090054342A1 (COMPUGEN, published 2009).
No end group written: not given here.

Key:
[1] = molecular target: MrgX1 (Mas-related G-protein coupled receptor member X1) (UniProt Q96LB2); test: cell-based or functional assay
[2] = molecular target: T1, FPRL1 (FPR-related receptor 1) (UniProt P25090 1-351, limits assumed); test: competitive radioligand binding against 0.025 nM [125I] WKYMVm on FPRL1-transfected CHO cells, 90 min at 25 C
T1 construct: whole, on cells; Expressed in CHO cells (with Gα16 in the calcium flux assay); also called lipoxin A4 receptor; LXA4R
T1 sequence (looked up): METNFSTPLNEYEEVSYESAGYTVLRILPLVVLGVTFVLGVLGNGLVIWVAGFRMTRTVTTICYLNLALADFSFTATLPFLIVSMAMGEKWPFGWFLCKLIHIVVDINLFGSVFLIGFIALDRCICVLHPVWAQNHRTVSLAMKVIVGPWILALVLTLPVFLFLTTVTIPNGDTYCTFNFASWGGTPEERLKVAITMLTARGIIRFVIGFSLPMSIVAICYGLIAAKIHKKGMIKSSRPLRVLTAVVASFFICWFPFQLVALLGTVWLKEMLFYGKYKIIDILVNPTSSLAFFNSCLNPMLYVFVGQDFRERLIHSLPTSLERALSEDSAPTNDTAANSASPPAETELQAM
Experimental: The specific binding of Peptide 58 (SEQ ID NO:1) to FPRL1 was analyzed by testing its ability to compete with 0.025 nM [¹²⁵I] WKYMVm (W peptide), a known agonist of FPRL1, for binding to FPRL1 in CHO transfected cells. CKβ8-1 (aa 46-137), another known ligand of FPRL1 was used as a positive control in this assay (Chiang et al 2006, Pharmacological Reviews 58, 463-487). Peptides were incubated with cells for 90 minutes at 25° C., in the presence of Incubation Buffer (50 mM HEPES, pH 7.4, 100 mM NaCl, 5 mM KCl, 5 mM MgCl2, 2 mM Ca C12, 0.5% BSA) and the amount of radioactive W peptide was measured.

Mas receptor = molecular target: T2, Mas receptor (UniProt P04201 1-325, limits assumed); test: cell-based or functional assay
T2 sequence (looked up): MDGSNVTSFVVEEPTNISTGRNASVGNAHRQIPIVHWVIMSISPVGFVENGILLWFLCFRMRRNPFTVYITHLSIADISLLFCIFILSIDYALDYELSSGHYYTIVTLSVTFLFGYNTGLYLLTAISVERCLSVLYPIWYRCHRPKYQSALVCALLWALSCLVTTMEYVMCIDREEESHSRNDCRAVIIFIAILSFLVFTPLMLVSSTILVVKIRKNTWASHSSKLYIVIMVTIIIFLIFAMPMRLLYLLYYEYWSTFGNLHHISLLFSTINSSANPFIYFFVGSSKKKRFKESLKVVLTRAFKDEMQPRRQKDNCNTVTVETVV

[3] = molecular target: MrgX1 (Mas-related G-protein coupled receptor member X1) (UniProt Q96LB2 1-322, limits assumed); test: cell-based or functional assay
Sequence of MrgX1 (Mas-related G-protein coupled receptor member X1) (UniProt Q96LB2 1-322, limits assumed) (Q96LB2 whole entry): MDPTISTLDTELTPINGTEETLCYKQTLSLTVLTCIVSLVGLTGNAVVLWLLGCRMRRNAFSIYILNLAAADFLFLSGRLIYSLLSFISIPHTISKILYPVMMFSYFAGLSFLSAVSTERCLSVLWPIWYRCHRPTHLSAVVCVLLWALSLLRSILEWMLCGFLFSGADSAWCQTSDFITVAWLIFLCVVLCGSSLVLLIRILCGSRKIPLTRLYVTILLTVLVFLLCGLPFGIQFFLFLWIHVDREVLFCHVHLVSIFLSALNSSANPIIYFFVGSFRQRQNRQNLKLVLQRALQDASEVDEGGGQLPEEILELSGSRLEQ

Sequence of MrgX1 (Mas-related G-protein coupled receptor member X1) (UniProt Q96LB2) (Q96LB2 whole entry): as above

## BAM22 (bovine adrenal medulla peptide 22) (from UniProt P01211 206-227)
[1]
  EC50 (calcium flux dose response): > 0.05 µM

B1: Peptide 58 (peptide)
peptide: TIPMFVPESTSKLQKFTSWFM-NH2
notes: Synthetic peptide (SPPS); also called P58; peptide P58
[2]
  IC50: 0.189 µM
  Ki: 0.0541 µM

## FLGYSIYLNRKRRGDPAFKRRLRD [Peptide 61_S]
Mas receptor
  EC50 (calcium flux dose response): ≥ 0.5 µM

## GIGSVWHWKHRVATRFTLPRFLQ [Peptide 60_S]
[3]
  EC50 (calcium flux dose response): ≥ 0.3 µM

## SMVHRWSRAVLFPAAHRP (also: acetate salt) [Peptide 33_V]
Mas receptor
  EC50 (calcium flux dose response): ≥ 1 µM
